Data taken from article PMC3365070, “Overexpression of a Maize Sulfite Oxidase Gene in Tobacco Enhances Tolerance to Sulfite Stress via Sulfite Oxidation and CAT-Mediated H2O2 Scavenging” (PLoS ONE, 2012).

Substrate: O=S(O)O
Assay: purified protein
Type: biochemical, Zea mays
Conditions: 400 µM ferricyanide as electron acceptor, sulfite 2.5-400 µM, 20 mM Tris-HCl pH 8.0 (general SO assay)

B1: ZmSO (recombinant maize sulfite oxidase) (Zea mays subsp. mays) (protein)
chain: MPGLTAPSDYAEEPPRHPALKINSKEPFNAEPHRSELVASYITPVDFFYKRNHGPIPKVEDLSRYTVSISGLVNKSIQLSMADIWSLPKYNVTATLQCAGNRRTAMSNVRKVRGVGWDISALGTATWGGAKLSDVLELVGIPKLSSVTSLGGKHVEFVSVDKCKEEKGGPYTASIPLNQATNPDADVLLAYEMNGEVLNRDHGYPLRVVVPGVIGARSVKWLDSINVKEEECQGFFMQKDYKMFPPTVDWDNINWSTRRPQMDFPVQSAICTLEDVDVIKEGQARIAGYALSGGGRGIERVDVSADGGKTWVEARRYQKDNVAYVSDGPQSDKWAWVLFEATLDVPANPEIVVKAVDSAANVQPEKVEDIWNLRGILNTSWHRIKIQRSSCVERSKL
notes: 45 kDa; Mo domain, no heme domain; primers give N-terminus MPGLTA
  Km: 21.4 ± 0.32 µM
